Measurements taken from US7037492.

Biological target: IL-1 receptors (on articular chondrocytes)
Assay: cell-based or functional assay

In the case of “human interleukin-1 receptor antagonist protein (IRAP) (from UniProt P18510 26-177) (ligand)”, the inhibition of gelatinase production by IL-1 treated chondrocytes, 5 U/ml IL-1, first culture's conditioned medium is reported as 100%, the inhibition of gelatinase production by IL-1 treated chondrocytes, 5 U/ml IL-1, second culture's conditioned medium is reported as 41% and the inhibition of gelatinase production by IL-1 treated chondrocytes, 10 U/ml IL-1, first culture's conditioned medium is reported as 38%. The inhibition of gelatinase production by IL-1 treated chondrocytes, 10 U/ml IL-1, second culture's conditioned medium was 18%.
